Like-named read-outs stand apart in the source and are kept apart here. One block for each molecule: values may come before it.
Experiments:
[1] = molecular target: T1, recombinant LepR-Fc fusion protein (human, UniProt P48357 22-839)
T1 sequence (looked up): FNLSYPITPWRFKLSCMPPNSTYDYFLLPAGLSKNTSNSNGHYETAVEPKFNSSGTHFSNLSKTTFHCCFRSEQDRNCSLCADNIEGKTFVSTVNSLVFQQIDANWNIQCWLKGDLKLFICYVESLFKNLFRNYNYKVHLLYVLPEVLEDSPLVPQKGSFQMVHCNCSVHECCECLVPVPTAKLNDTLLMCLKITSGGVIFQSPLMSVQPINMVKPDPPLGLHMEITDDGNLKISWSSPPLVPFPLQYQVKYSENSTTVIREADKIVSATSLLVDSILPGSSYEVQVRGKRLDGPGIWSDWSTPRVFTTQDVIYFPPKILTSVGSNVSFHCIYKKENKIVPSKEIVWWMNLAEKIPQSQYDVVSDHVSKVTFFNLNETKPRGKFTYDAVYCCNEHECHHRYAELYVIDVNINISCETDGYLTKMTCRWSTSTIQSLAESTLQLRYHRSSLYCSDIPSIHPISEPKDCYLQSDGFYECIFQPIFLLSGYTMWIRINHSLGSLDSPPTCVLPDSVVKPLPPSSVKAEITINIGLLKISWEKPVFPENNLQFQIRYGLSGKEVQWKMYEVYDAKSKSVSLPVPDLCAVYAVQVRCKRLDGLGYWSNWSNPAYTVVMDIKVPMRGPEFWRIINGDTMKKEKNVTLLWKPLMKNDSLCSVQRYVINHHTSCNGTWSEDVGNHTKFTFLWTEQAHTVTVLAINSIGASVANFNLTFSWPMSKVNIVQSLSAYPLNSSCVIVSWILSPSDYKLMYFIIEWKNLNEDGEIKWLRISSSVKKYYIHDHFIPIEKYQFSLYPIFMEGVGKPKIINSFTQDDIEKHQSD

[2] = molecular target: T1, recombinant LepR-Fc fusion protein; assay: cell-based or functional assay

Molecule: huLeptin^W100E (recombinant, unmodified) (from UniProt P41159 22-167) (ligand)
EC50 of STAT3-responsive dual luciferase reporter in HEK293 cells transiently transfected with human LepRb (whole receptor on cells); leptin 50 fM to 500 nM, 18 h [1]: 0.1 nM

Molecule: PAS(200)-huLeptin (human wild-type leptin, PASylated) (from UniProt P41159 22-167) (ligand)
EC50 of STAT3-responsive dual luciferase reporter in HEK293 cells transiently transfected with human LepRb (whole receptor on cells); PASylated leptin 50 fM to 500 nM, 18 h [1]: 1.2 nM

Molecule: murine leptin (recombinant, unmodified) (from UniProt P41160 22-167) (ligand)
EC50 of STAT3-responsive dual luciferase reporter in HEK293 cells transiently transfected with human LepRb (whole receptor on cells); leptin 50 fM to 500 nM, 18 h [1]: 0.04 nM

B1: His6-PAS(200)-muLeptin (ligand)
chain: ASPAAPAPASPAAPAPSAPAASPAAPAPASPAAPAPSAPAASPAAPAPASPAAPAPSAPAASPAAPAPASPAAPAPSAPAASPAAPAPASPAAPAPSAPAASPAAPAPASPAAPAPSAPAASPAAPAPASPAAPAPSAPAASPAAPAPASPAAPAPSAPAASPAAPAPASPAAPAPSAPAASPAAPAPASPAAPAPSAPAAVPIQKVQDDTKTLIKTIVTRINDISHTQSVSAKQRVTGLDFIPGLHPILSLSKMDQTLAVYQQVLTSLPSQNVLQIANDLENLRDLLHLLAFSKSCSLPQTSGLQKPESLDGVLEASLYSTEVVALSRLQGSLQDILQQLDVSPEC
EC50 of STAT3-responsive dual luciferase reporter in HEK293 cells transiently transfected with human LepRb (whole receptor on cells); PASylated leptin 50 fM to 500 nM, 18 h [2]: 0.16 nM

Other lines, results leading:

EC50 of STAT3-responsive dual luciferase reporter in HEK293 cells transiently transfected with human LepRb (whole receptor on cells); leptin 50 fM to 500 nM, 18 h [1]: 0.13 nM
Molecule: huLeptin^W100Q (recombinant, unmodified) (from UniProt P41159 22-167) (ligand)

EC50 of STAT3-responsive dual luciferase reporter in HEK293 cells transiently transfected with human LepRb (whole receptor on cells); leptin 50 fM to 500 nM, 18 h [1]: 0.1 nM
Molecule: human wild-type leptin (recombinant, unmodified) (from UniProt P41159 22-167) (ligand)

From publication PMC12135040, “Long-Acting Human PASylated Leptin Reaches the Murine Central Nervous System and Offers Potential for Optimized Replacement Therapy” (Molecular Pharmaceutics, 2025)
